In patent US20220125845A1 (GUANGDONG TCRCURE BIOPHARMA TECHNOLOGY, published 2022):

Experiments:
[1] = target: ALPP on ALPP-positive SiHa cervical cancer cells (UniProt P05187); experiment: cell-based or functional assay
[2] = target: T1, ALPP on ALPP-positive SiHa cervical cancer cells (UniProt P05187 23-506, limits assumed); experiment: flow cytometry on SiHa cells, AF488 goat anti-mouse IgG (Fcγ specific) secondary
T1 construct: whole, on cells; SiHa cells (ATCC) are called ALPP-positive cervical cancer cells, and ALPP is the target meant; SiHa is a human line; also called PLAP; SiHa cells
T1 sequence (P05187 23-506 limits assumed): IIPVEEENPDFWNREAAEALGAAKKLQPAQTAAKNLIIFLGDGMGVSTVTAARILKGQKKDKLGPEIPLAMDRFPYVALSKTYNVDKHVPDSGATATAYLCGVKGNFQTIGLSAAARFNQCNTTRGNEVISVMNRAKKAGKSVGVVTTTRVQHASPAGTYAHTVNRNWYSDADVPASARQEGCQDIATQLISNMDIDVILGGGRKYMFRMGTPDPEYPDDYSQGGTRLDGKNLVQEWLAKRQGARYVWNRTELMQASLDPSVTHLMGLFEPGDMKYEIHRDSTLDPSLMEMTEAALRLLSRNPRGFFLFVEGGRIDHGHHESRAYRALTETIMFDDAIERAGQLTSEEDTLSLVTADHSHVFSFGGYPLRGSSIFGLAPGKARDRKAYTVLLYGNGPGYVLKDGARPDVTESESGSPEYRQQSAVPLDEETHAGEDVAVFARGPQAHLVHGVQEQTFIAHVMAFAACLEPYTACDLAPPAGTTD
Protocol: (§1) 0.2×10⁶ SiHa cells were incubated with serially diluted anti-ALPP antibodies as described herein. Afterward, an AF488 goat anti-human secondary antibody or an AF488 goat anti-mouse IgG (Fcγ fragment specific) was used to stain the cells. Then, the fluorescently stained cells were detected by flow cytometry. Binding curves and calculated EC₅₀ values are shown in FIG. 10B and the table below, respectively.

[3] = target: T2, ALPP antigen (alkaline phosphatase, placental), coated on ELISA plates (UniProt P05187 23-506, limits assumed); experiment: ELISA, plate coated with 125 ng ALPP antigen, biotin goat anti-mouse Fc and streptavidin-HRP, OD450
T2 construct: 125 ng ALPP antigen was coated per plate/well; the general description concerns human ALPP; also called PLAP; placental alkaline phosphatase
T2 sequence (P05187 23-506 limits assumed): as above
Protocol: (§2) Enzyme-linked immunosorbent assay (ELISA) plates were coated with 125 ng ALPP antigen. After blocking the plates, serial dilutions of anti-ALPP antibodies including A02 (H17E2), A04, A05, A06, A07, A08, A09, or a chimeric antibody were added to corresponding wells. Then, a Biotin-SP-AffiniPure goat anti-human antibody was added to wells containing the humanized antibodies A04, A05, A06, A07, A08, A09, or the chimeric antibody. Meanwhile, a Biotin-SP-AffiniPure goat anti-mouse Fc antibody was added to wells containing the mouse antibody H17E2. Next, HRP-conjugated streptavidin was used for biotin detection. Final detection was accomplished by assessing OD450 after 3,3′,5,5′-Tetramethylbenzidine (TMB) substrate was added. Binding curves and calculated EC₅₀ values are shown in FIG. 10A and the table below, respectively.

[4] = target: T1, ALPP on ALPP-positive SiHa cervical …; experiment: flow cytometry on SiHa cells, AF488 goat anti-human secondary
Protocol: as §1

[5] = target: T2, ALPP antigen (alkaline phosphatase, …); experiment: ELISA, plate coated with 125 ng ALPP antigen, biotin goat anti-human and streptavidin-HRP, OD450
Protocol: as §2

ALPP on ALPP-positive SiHa cervical cancer cells (UniProt P05187), sequence (P05187 23-506 limits assumed): as above

| Molecule | CD69 expression in CD3+ Jurkat cells (percent activated), overnight co-culture with SiHa cells [1] | EC50 [2] | EC50 [3] | EC50 [4] | EC50 [5] |
| --- | --- | --- | --- | --- | --- |
| A02 CAR (murine H17E2 scFv, CD8 hinge and transmembrane region, 4-1BB, CD3 zeta) | 70 to 80% | – | – | – | – |
| humanized anti-ALPP antibody A05 (antibody, V domains shown, Detected with a goat anti-human secondary antibody; also called A05Ab) VH: QVQLKESGPGLVAPSQTLSLTCTVSGFSLTSYGVSWIRQPPGKGLEWIGVIWEDGSTNYHSALISRVSISVDTSKSQFSLKLSSVDAADTAVYYCARPHYGSSYVGAMEYWGQGTTVTVSS VL: DIQMTQSPSSLSASVGDRVTITCRASENIYSYVAWYQQKPGKAPKFLIYNAKSLAEGVPSRFSGSGSGTDFTLTISSLQPEDFANYYCQHHYVSPWTFGQGTKVEIK | – | – | – | 0.225 mg/L | 0.00491 mg/L |
| humanized anti-ALPP antibody A06 (antibody, V domains shown, Detected with a goat anti-human secondary antibody; also called A06Ab) VH: QVQLKESGPGLVAPSQTLSLTCTVSGFSLTSYGVSWIRQPPGKGLEWIGVIWEDGSTNYHSALISRVSISVDTSKSQFSLKLSSVDAADTAVYYCAKPHYGSSYVGAMEYWGQGTTVTVSS VL: DIQMTQSPSSLSASVGDRVTITCRASENIYSYVAWYQQKPGKAPKLLIYNAKSLAEGVPSRFSGSGSGTDFTLTISSLQPEDFANYYCQHHYVSPWTFGQGTKVEIK | – | – | – | 0.257 mg/L | 0.0037 mg/L |
| humanized anti-ALPP antibody A07 (antibody, V domains shown, Detected with a goat anti-human secondary antibody; also called A07Ab) VH: QVQLKESGPGLVAPSQTLSLTCTVSGFSLTSYGVSWIRQPPGKGLEWIGVIWEDGSTNYHSALISRVSISVDTSKSQFSLKLSSVDAADTAVYYCAKPHYGSSYVGAMEYWGQGTTVTVSS VL: DIQMTQSPSSLSASVGDRVTITCRASENIYSYVAWYQQKPGKAPKFLIYNAKSLAEGVPSRFSGSGSGTDFTLTISSLQPEDFANYYCQHHYVSPWTFGQGTKVEIK | – | – | – | 0.302 mg/L | 0.00534 mg/L |
| humanized anti-ALPP antibody A04 (antibody, V domains shown, Detected with a goat anti-human secondary antibody; also called A04Ab) VH: QVQLQESGPGLVAPSQTLSLTCTVSGFSLTSYGVSWIRQPPGKGLEWIGVIWEDGSTNYHSALISRVSISVDTSKSQFSLKLSSVDAADTAVYYCARPHYGSSYVGAMEYWGQGTTVTVSS VL: DIQMTQSPSSLSASVGDRVTITCRASENIYSYVAWYQQKPGKAPKFLIYNAKSLAEGVPSRFSGSGSGTDFTLTISSLQPEDFANYYCQHHYVSPWTFGQGTKVEIK | – | – | – | 0.286 mg/L | 0.00589 mg/L |

The next lines start with the values.

| CD69 expression in CD3+ Jurkat cells (percent activated), overnight co-culture with SiHa cells [1] | EC50 [2] | EC50 [3] | EC50 [4] | EC50 [5] | Molecule |
| --- | --- | --- | --- | --- | --- |
| – | 0.211 mg/L | 0.0108 mg/L | – | – | parent mouse anti-ALPP antibody H17E2 (antibody, V domains shown, Mouse monoclonal antibody, detected with goat anti-mouse Fc secondary antibodies; also called A02; A02 antibody) VH: QVQLKESGPGLVAPSQSLSITCTVSGFSLTSYGVSWVRQPPRKGLEWLGVIWEDGSTNYHSALISRLSINKDNSKSQVFLKLNSLQTDDTATYYCAKPHYGSSYVGAMEYWGQGTSVTVSS VL: DIQMTQSPASLTASVGETVTITCRASENIYSYVAWYQQKQGKSPQFLVYNAKSLAEGVPSRFSGSGSGTQFSLKINSLQPEDFGNYYCQHHYVSPWTFGGGTKLEIK |
| – | – | – | 0.233 mg/L | 0.00481 mg/L | humanized anti-ALPP antibody A08 (antibody, V domains shown, Detected with a goat anti-human secondary antibody; also called A08Ab) VH: QVQLQESGPGLVKPSQTLSLTCTVSGFSLTSYGVSWIRQPPGKGLEWIGVIWEDGSTNYHSALISRVSISVDTSKSQFSLKLSSVDAADTAVYYCARPHYGSSYVGAMEYWGQGTTVTVSS VL: DIQMTQSPSSLSASVGDRVTITCRASENIYSYVAWYQQKPGKAPKFLIYNAKSLAEGVPSRFSGSGSGTDFTLTISSLQPEDFANYYCQHHYVSPWTFGQGTKVEIK |
